Test results published in patent US20240166692A1.
Values belong to the binder of their own block, whether it stands above or below them.

How the values were obtained:
[1] = molecular target: C3b (component obtained after hydrolysis of complement component 3, C3) (UniProt P01024); test: ELISA screen of optimized Nf1 variants
[2] = molecular target: C3b (component obtained after hydrolysis of complement component 3, C3) (UniProt P01024); test: BLI (Octet RED96), GFP tagged Nanofitin captured on anti-GFP Nanofitin biosensor, C3b in solution, 1:1 fit
[3] = molecular target: C3b (component obtained after hydrolysis of complement component 3, C3) (UniProt P01024); test: biolayer interferometry
[4] = molecular target: C3b (component obtained after hydrolysis of complement component 3, C3) (UniProt P01024); test: biolayer interferometry; B10 by full chemical synthesis
[5] = molecular target: C3b (component obtained after hydrolysis of complement component 3, C3) (UniProt P01024); test: biolayer interferometry; B10 recombinant from E. coli; untagged B10, recombinant from E. coli

- OD 450 nm [1]: > 4 OD 450 nm
- Kd [2]: 7.31 nM
- koff [2]: 0.000433 s⁻¹
- kon [2]: 59200 M⁻¹ s⁻¹
B1: B10 (SEQ ID NO: 25), GFP tagged anti-C3 Nanofitin (designed binder, not shown: large carriers)
chain: MVKVKFDATGEEKEVDTSKISAVYRTGKDVLFSYDDNGKIGWGYVSEKDAPKELLDLLARAERE

- OD 450 nm [1]: > 4 OD 450 nm
- Kd [2]: 2.89 nM
- koff [2]: 0.000188 s⁻¹
- kon [2]: 65200 M⁻¹ s⁻¹
B2: H03 (SEQ ID NO: 26), GFP tagged anti-C3 Nanofitin (designed binder, not shown: large carriers)
chain: MVKVKFAATGEEKEVDTSKIANVYRVGKDVLFSYDDNGKIGWGYVSEKDAPKELLDLLARAERE

- Kd [3]: 2.5 nM
B3: B10 Nanofitin with N-terminal peptide (10-mers) tag and C-terminal peptide (15-mers) tag (designed binder, not shown: small tags and cut ends)
chain: MVKVKFDATGEEKEVDTSKISAVYRTGKDVLFSYDDNGKIGWGYVSEKDAPKELLDLLARAERE

- Kd [3]: 7.3 nM
B4: B10 Nanofitin with N-terminal peptide (10-mers) tag and C-terminal 30 kDa protein (designed binder, not shown: large carriers; small tags and cut ends)
chain: MVKVKFDATGEEKEVDTSKISAVYRTGKDVLFSYDDNGKIGWGYVSEKDAPKELLDLLARAERE

- Kd [3]: 8.2 nM
B5: B10 Nanofitin with N-terminal peptide (10-mers) tag (designed binder, not shown: small tags and cut ends)
chain: MVKVKFDATGEEKEVDTSKISAVYRTGKDVLFSYDDNGKIGWGYVSEKDAPKELLDLLARAERE

- Kd [3]: 11.5 nM
B6: B10 Nanofitin with N-terminal peptide (10-mers) tag and C-terminal Nanofitin (designed binder, not shown: small tags and cut ends)
chain: MVKVKFDATGEEKEVDTSKISAVYRTGKDVLFSYDDNGKIGWGYVSEKDAPKELLDLLARAERE

- Kd [4]: 18 nM
- Kd [5]: 18.5 nM
B7: B10 Nanofitin without N- or C-terminal tag (designed binder)
chain: MVKVKFDATGEEKEVDTSKISAVYRTGKDVLFSYDDNGKIGWGYVSEKDAPKELLDLLARAERE

- Kd [3]: 6.7 nM
B8: B10 Nanofitin with N-terminal 48 kDa protein (designed binder, not shown: small tags and cut ends)
chain: MVKVKFDATGEEKEVDTSKISAVYRTGKDVLFSYDDNGKIGWGYVSEKDAPKELLDLLARAERE
